This is an account of results in patent US20220204611A1 (Amgen, published 2022).

In assay [1] the target is T1, human TREM2 (human, UniProt Q9NZC2 19-174, limits assumed).
T1 sequence: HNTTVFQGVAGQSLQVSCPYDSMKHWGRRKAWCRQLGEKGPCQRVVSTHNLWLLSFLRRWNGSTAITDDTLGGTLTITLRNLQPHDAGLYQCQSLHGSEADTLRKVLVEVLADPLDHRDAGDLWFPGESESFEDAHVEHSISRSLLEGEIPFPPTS
Description: yeast-displayed Fab FACS, 1st screen 110 nM.

In assay [2] the target is T1, human TREM2. In words: yeast-displayed Fab FACS, 2nd screen 100 nM.

B1: V6 (Fab, V domains shown)
VH: EVQLVQSGAEVKKPGESLKISCKGSGYSFTSMWIAWVRQMPGKGLEWMGIIYPGDSDTRYSPSFQGQVTISADKSISTAYLQWSSLKASDTAMYFCARQRTFYYDSSDYFDYWGQGTLVTVSS
VL: DIQMTQSPSSVSASVGDRVTITCRASQGISSWLAWYQQKPGKAPKLLIYAASSLQNGVPSRFSGSGSGTDFTLTISSLQPEDFATYFCQQADSFPRTFGQGTKLEIK
For B1, the entries for the “binding signal fold over 6E7 parental” value in the assay with human TREM2 [1] and with human TREM2 [2] were 0.2 fold and 0.56 fold, respectively.

B2: V9 (Fab, V domains shown)
VH: EVQLVQSGAEVKKPGESLKISCKGSGYSFTSYWIAWVRQMPGKGLEWMGIIYPGDSDTRYSPSFQGQVTISADKSISTAYLQWSSLKASDTAMYFCARQRGFYYDSSDYFDYWGQGTLVTVSS
VL: DIQMTQSPSSVSASVGDRVTITCRASQGISSWLAWYQQKPGKAPKLLIYAASSLQNGVPSRFSGSGSGTDFTLTISSLQPEDFATYFCQQADSFPRTFGQGTKLEIK
B2: the “binding signal fold over 6E7 parental” value was 0.67 fold in the assay with human TREM2 [1] and 0.54 fold with human TREM2 [2].

B3: V18 (Fab, V domains shown)
VH: EVQLVQSGAEVKKPGESLKISCKGSGYSFTSYHIAWVRQMPGKGLEWMGIIYPGDSDTRYSPSFQGQVTISADKSISTAYLQWSSLKASDTAMYFCARQRTFYYDSSDYFDYWGQGTLVTVSS
VL: DIQMTQSPSSVSASVGDRVTITCRASQGISSWLAWYQQKPGKAPKLLIYAASSLQNGVPSRFSGSGSGTDFTLTISSLQPEDFATYFCQQADSFPRTFGQGTKLEIK
On to B3, for which the figures for the “binding signal fold over 6E7 parental” value with human TREM2 [1] and in the assay with human TREM2 [2] were 0.17 fold and 0.42 fold, respectively.

B4: V11 (Fab, V domains shown)
VH: EVQLVQSGAEVKKPGESLKISCKGSGYSFTSYWIAWVRQMPGKGLEWMGIIYPGDSDTRYSPSFQGQVTISADKSISTAYLQWSSLKASDTAMYFCARQRTFYYDSSDYFDYWGQGTLVTVSS
VL: DIQMTQSPSSVSASVGDRVTITCRASQGISSWLAWYQQKPGKAPKLLIYAASSLQNGVPSRFSGSGSGTDFTLTISSLQPEDFATYFCQQAASFPRTFGQGTKLEIK
In the case of B4, the “binding signal fold over 6E7 parental” value is 0.79 fold with human TREM2 [1] and 0.42 fold in the assay with human TREM2 [2].

B5: V10 (Fab, V domains shown)
VH: EVQLVQSGAEVKKPGESLKISCKGSGYSFTSYWIAWVRQMPGKGLEWMGIIYPGDSDTRYSPSFQGQVTISADKSISTAYLQWSSLKASDTAMYFCARQRTFYYDSSDYFDYWGQGTLVTVSS
VL: DIQMTQSPSSVSASVGDRVTITCRASQGISSWLAWYQQKPGKAPKLLIYSASSLQNGVPSRFSGSGSGTDFTLTISSLQPEDFATYFCQQADSFPRTFGQGTKLEIK
Take B5: the figures for the “binding signal fold over 6E7 parental” value in the assay with human TREM2 [1] and with human TREM2 [2] were 0.76 fold and 0.7 fold, respectively.

B6: V7 (Fab, V domains shown)
VH: EVQLVQSGAEVKKPGESLKISCKGSGYSFTSEWIAWVRQMPGKGLEWMGIIYPGDSDTRYSPSFQGQVTISADKSISTAYLQWSSLKASDTAMYFCARQRTFYYDSSDYFDYWGQGTLVTVSS
VL: DIQMTQSPSSVSASVGDRVTITCRASQGISSWLAWYQQKPGKAPKLLIYAASSLQNGVPSRFSGSGSGTDFTLTISSLQPEDFATYFCQQADSFPRTFGQGTKLEIK
Consider B6, for which the figures for the “binding signal fold over 6E7 parental” value in the assay with human TREM2 [1] and with human TREM2 [2] were 0.11 fold and 0.32 fold, respectively.

B7: V8 (Fab, V domains shown)
VH: EVQLVQSGAEVKKPGESLKISCKGSGYSFTSYWIAWVRQMPGKGLEWMGIIYPGDSDTKYSPSFQGQVTISADKSISTAYLQWSSLKASDTAMYFCARQRTFYYDSSDYFDYWGQGTLVTVSS
VL: DIQMTQSPSSVSASVGDRVTITCRASQGISSWLAWYQQKPGKAPKLLIYAASSLQNGVPSRFSGSGSGTDFTLTISSLQPEDFATYFCQQADSFPRTFGQGTKLEIK
On to B7, for which the figures for the “binding signal fold over 6E7 parental” value with human TREM2 [1] and in the assay with human TREM2 [2] were 0.28 fold and 0.77 fold, respectively.
